Laboratory results from the DeepSol protein solubility set.

Assay: soluble on expression in E. coli; label from the status in PepcDB or PDB records

GPGSMLRSEVLDAEVAKSVEAYSTAVTPFVERRSGLYLTKFEVARIIGERAKQIASGAAMSLPGTGSGLDSVETAERCTNPRSLAVDPVMMAKYDLLQRKIRMLVRRVWPDGAVETIPVNELMVDVTMLDLQY
soluble on expression in E. coli: soluble

SLMHHALHIKNGIVIDPKNGVKAEKMDIFVKNGKIVEESEVKGEDVKVIDANNKLVVAGGVDMHAHIAGSKINTGRTMRPEEMRVVRNIAGKFRAAVGRVLLTSPAIGYEYAKMGYTISIEAAQPPIGSPHTHEELDAIPMIDKAALPVFGNWHFVLKYVAEKDMEKLKAFIAWAIERTKGFGVKVVNPGGVGAWMYGGNVTSLDDQVPGFNVTPREIITSLVKATEELQLNHSVHLHCNRLGVPGNYETTVESIKLVDGIRNDARQVLHVTHVQFNAYAGDSWRTVASGAEAIAKTVNSMDNVTIDMGQPIFGHATAMTGDAPFQFTLHKLTGSRWSNKDSEIEGGAGIVPIAYLPKNPVHALQWAIGLELGLLIDSDKVVLTTDYPNGGPFTEYPYIMAMLMSKKMREGELERVSPFVQKASNLPAIDTEKTLEEVIHMTRSLPARVLGLPQKGHLGVGADADIAIYDLNPLDVDTSNDFEKVYKAFKTAVYTIKDGQILVKDGELVDEYWGRTYWVDATGKADMEAIKDDLNEMFSKYYTVELQNYGVEERWLRKPERIVI
soluble on expression in E. coli: not soluble

MGSSHHHHHHGKTIFVIVPTNEEQVAFLEALAKQDELNFDWQNPPTEPGQPVVILIPSDMVEWFLEMLKAKGIPFTVYVEEGGSENLYFQGGGGGGPKREEQMYMHIRKVYGDNIPEELLQRAKRQREAQDALTLTNMLRTPTPGQTSNALQNDLDPRALIELKSWNGH
soluble on expression in E. coli: soluble

MAHHHHHHMRSPASEGDCGVRLRVSWREGKQRALTDELDAKHQSDPYETLQTSDRKVFVSNTAAGAGRLLTDPQVHADDKGFSTYLRERLLVRVLPEGQKCVCGADASNEHVHTCTRLQQNPRTTRHEMISMTFANGLRLCGFQCGMEPRLTEASRRRPDILIVGLDTYAITDVTVTYAGRVTAYVSEESMEEADPLRAARDRLTQKRQKYRHWALANGLDFEPFVMLTNGAIHPAIRRWLRRILGARVLAYAGAQWVAERQ
soluble on expression in E. coli: soluble

MGSDKIHHHHHHMQQEIIDFRQSQSLAGAELSRASYQRFDFGRHVHEDLHLGAVIRGAQAFNHKGTGHTLCRGDLSTLSPDECHDGIAATDTGYEVLVLSLPQWHLDRFAAELGISFGGFCQPKRKDMALYQAFVSLHRLLYQAENPLLEETALLDFFQRLLGQCSKSEKVTNTGTVKAGLSREIRLAKSLMADTPEPVTLELLGDATGLGRYRLLRHFRAQTGLSPHQWQLRLRLERAKKSLMQNDGNSLTDIAHQHGFSDLSHFTRHFRMAFLTSPSAYRRAIRN
soluble on expression in E. coli: not soluble

MGSDKIHHHHHHMWFCFLKSGFIIIKQILSTPFFSYKYNIKILINFKLISNIIEHKMLEYANKITLKGDNIMKFAVITDIHGNFDALQTVLDDIDSRDDIEKIYNLGDNIGIGHETNKVLDTIFDRDDMEMIAGNHDEAIMSLVNGTPYPEDLKGKFYEHHQWIEGHLDESYYDEINQLPRYIEMTIKGKKILFIHYEIENDKMSAPIDEQPFAPITKDDEQAISELFKDKEADLILFGHNHRLHMFDDKSTVYFNPGSVGLNNGSNTVYGIITVNEKGISVERVKLAYNNEEFLAGFEEKQVPAREFIFKNFI
soluble on expression in E. coli: not soluble

NGGTSKTVKFERFEDYNGPKPARAKNMVWQIIPDASTRTNALQSKSVQAIDSVPYLSIDQLKGTHTVESVQGFGLLFAMFNNDKSNPFSDLKNRQAFLYGIDMDKVIKTALLGQATAPTSFLHKEHPQYHEAKVVYSHDAEKAKALFKETGLTKLRMLCTDHDWVKKCTPLIQESLTALGIQVDFTEKKSSDVYNTIDGKPEAYDVVIAPGDPSVFGTDPDLLMRWWYSGDTWTDTRMHWKGTEAYAKLQEVLDAGLAATSESEQKNKWHEALDIISENVPLYPLLHRKAPTAWDASTLVDFKPISLTGLSFSGVGTTQ
soluble on expression in E. coli: not soluble

MLDTNMKTQLRAYLEKLTKPVELIATLDDSAKSAEIKELLAEIAELSDKVTFKEDNTLPVRKPSFLITNPGSQQGPRFAGSPLGHEFTSLVLALLWTGGHPSKEAQSLLEQIRDIDGDFEFETYYSLSCHNCPDVVQALNLMAVLNPRIKHTAIDGGTFQNEITERNVMGVPAVFVNGKEFGQGRMTLTEIVAKVDTGAEKRAAEALNKRDAYDVLIVGSGPAGAAAAVYSARKGIRTGLMGERFGGQVLDTVDIENYISVPKTEGQKLAGALKAHVSDYDVDVIDSQSASKLVPAATEGGLHQIETASGAVLKARSIIIATGAKWRNMNVPGEDQYRTKGVTYCPHCDGPLFKGKRVAVIGGGNSGVEAAIDLAGIVEHVTLLEFAPEMKADQVLQDKVRSLKNVDIILNAQTTEVKGDGSKVVGLEYRDRVSGDIHSVALAGIFVQIGLLPNTHWLEGALERNRMGEIIIDAKCETSVKGVFAAGDCTTVPYKQIIIATGEGAKASLSAFDYLIRTKIA
soluble on expression in E. coli: soluble

MKLDAILWDYDGTLVNSVPKNIEITKAILAIVAPHLTGDNLPKYLHSEANYHYANHAAKNWQELYVDYYGMSHDEMLQAGGLWAEHQEKNQTPVTLFEGIDGVIKEFAQLPHGICSQNSQSNIRRVLSDNGISAPFKSIVGYDDVSNGHQKPDAYSGIKCVESIFGHAENRQLMYIGDHEADTQFARNIEQQLGGQSKVIAVAAAYSGAMPEHWSVQPDYVARTVDELFSIIAQHT
soluble on expression in E. coli: not soluble

MSLGKLSILSKRKYTMKNQIQFSTFNFKDLPVRVILDPKGEFWFCGTDVCHILGYTNSRKALQDHCKQGGVTKRYTPTKSADQEMTFINEPNLYRLIIKSRKPEAEPFEAWVFEEVLPQIRKTGKYQLQPQQLALPEPEKKFSFEFTEYELQQLVWLWFAFMRGIVTFQHIEKAFKALGSNMSGDIYGQAYEYLSVYAQQTKSEGHHHHHH
soluble on expression in E. coli: not soluble

MSLSEFLTKNEEKIEKIVKFHRSFDEMSQTQRQAWLEEMGDINIEHFFKANQRVFDEDGPRERSIPRRDFFLDVIKNRVKSDPLLQPKGHPVTNYLQENIHIRKLCEKITDTFCVEEIASYDAALNLLYELSKIHTHYLRKEDQLFPYLEKHNFTYPSTGMWKFQDEIRANLKMVIKAFEKNELNKEMQTLMRDVVKDIFDMTTREEKMLLPTSVKLLSNEEWIKMRKEEQEIGYVFIQSPPMWPEDESHKPDMASSLGSIFLQEGSLSQEQLNLFFSHLPFDVTFVDENDRVAFFNKGSERTFLRSAGVIGREVKFCHPPKSVDAVLKILEAFKAGTKESAEFWITFGGRLIHIRYFALRDSEKNYKGVVEITQDITDIKNIEGERRLLDWEEGHHHHHH
soluble on expression in E. coli: soluble

STGVPATDLQQSIMKNVQPIELYFDNELVTDCSALGVYDNSYLVPLHLFEFDFDTIVLGGRHYKKAECEKVEFELEVNGDMVSSDACLLRVPSGPKVRNIVHLFTNEIELKKMTQVTGIMNSPHQARTVFFGSFLTVRKSILTSDGTVMPNVLSYAAQTSRGYCGAAIVAGSPARIIGIHSAGTGSVAFCSLVSKDALERTLPQKQGNVSRLDDDVRVSVPRRSKLVKSLAYPIFKPDYGPAPLSQFDKRLSDGVKLDEVVFAKHTGDKEISAQDQKWLLRAAHVYAQKVFSRIGFDNQALTEKEAICGIPGLDKMEQDTAPGLPYAQQNKRRKDICDFEEGRLKGAAKFQKDRFMAGDYSDLIYQSFLKDEIRPLEKVRAGKTRLIDVPPMPHVVVGRQLLGRFVAKFHEANGFDIGSAIGCDPDVDWTRFGLELERFRYVYACDYSRFDANHAADAMRVVLNYFFSEDHGFDPGVPAFIESLIDSVHAYEEKRYNIYGGLPSGCSCTSILNTILNNVYILAAMMKAYENFEPDDIQVICYGDDCLIASDFEIDFQQLVPVFSSFGQVITTADKTDFFKLTTLSEVTFLKRAFVPDGAFYKPVMDVKTLEAILSFVRPGTQAEKLLSVAQLAGHCEPEQYERLFEPFVGMYFVPTWRDLRLQWLMKLGC
soluble on expression in E. coli: soluble

ATKEFIYLVRGMTPEQGQAALDLKVPGVYGIEEFRRFYPAGDVTAHMVGFTDLDDHGREGVELAYDDWLAGVPGKRQVIKDRRGRLIKDVQVTKNAKAGKTLALSID
soluble on expression in E. coli: not soluble

MSVIRLHQYQVVGRALPTEKDEQPKIYRMKLWATNEVLAKSKFWYYLRRQKKVKKSNGQMLAINEIFEKNPTTIKNFGIWLRYQSRTGYHNMYKEYRDTTLNGAVEQMYTEMASRHRVRFPCIQIIKTATVPASLCKRESTKQFHNSKIKFPLVFRKVRPPTRKLKTTFKANKPNLFM
soluble on expression in E. coli: soluble

SLDLFISRHLEQLNSLSFKATPLFEHKAQFYAAPSYLEKYGTPQNVEELTKHNILIWGEKPAREIKTNRGKRMSLSGNFATTNPEALFHGAKRGMGILMTNNVMIKDDLKSGALVPILPDVTADEATVYAYYPKLDYQHTRTQLFLDYLKSRLEEEKRI
soluble on expression in E. coli: not soluble

MMLEQLIQLKQDLIDGSKVEKPSLDDKQIDEMDILVSEALEFNKELKFKLFNKGFVENVTGRVHYINFEQQKLHVKDQNDNTVYINMNNIIRVIYND
soluble on expression in E. coli: not soluble

MDEIPADIRNEIIYYYRLSRKVLLGLYNKSIIFVLPSIVEGMPSPPLEAMACGCAVVVTDNGGVNEYIKDGLNGIVCPVRDSYCLYQKVILLINNKALREQMIQDGLETAKEFSYDNMNKNFIRLIEEVQRRKSLEHHHHHH
soluble on expression in E. coli: not soluble

MKVGIIGKQGRLGRVLQAILDENGFDVVENNWDIAFLSVPIGAAISYIEKYDGPFIEVSSVKTPFKKYAGRIVSIHPLFGPASYKDGVHRTVLFIKDISMPEYRDLIAEMFRGYEIVDTTADVHDKEMAKSLALPYAVAIISKNIDTAFRTKSFDTFKGIVRILENENEEVMLDTINKNPYAQYMYDIVKNLGMVIQMAGDPLEHHHHHH
soluble on expression in E. coli: not soluble

MSRLVIPSHSPNEEGNVVRVTPESAGWEYVGFEVYVLAKGQTLRKETKDQEACLVLLKGKANISTKLERWEQIGLRMDVSEKVPPYSVYIPSNDFYEVQAVTDLELAVCLAPGKGTYPARLIPPSEVGVEIRGAGNIERRVHNILPESQPADSLLVVEVFTPEGNWSSYPPHKHDQDNLPHESYLEETYYHKINPDHGFMVQRVYTDDRSIDETMVVKNGDVVLVPKGYHPVSAPPGYEGYYLNVMAGPVRTWKFHNDPDHEWVMESKLAAKQK
soluble on expression in E. coli: not soluble

MALYAVDKPLHLTSHDVVEEARRRLSTRRVGHTGTLDPLATGLLLLVTNESTKLVPFLSGEDKEYIAWVSFGATTPTLDAEGPISEEAPARFDRKDLEAALPRFLEVREQVPPLYSAIKVGGKRAYEAAREGKPLALGPRPVRYLEVELLAFDPEPIPHPIAPSARGWRLAERRGRPVRLPRPLGAYPTAVVRLVVGPGTYVRAFARDLGEMLGTKAFLSGLVRTRVGRVGLERAVALSDLSPEKAIPELDVLPFPVVELSHTEARRVLEGMPLPIPAMGYVTLVDSKRRLLAIAEGDGFKLKIRRVFAKEA
soluble on expression in E. coli: soluble

SLSTVELSGTVVKQGYLAKQGHKRKNWKVRRFVLRKDPAFLHYYDPSKEENRPVGGFSLRGSLVSALEDNGVPTGVKGNVQGNLFKVITKDDTHYYIQASSKAERAEWIEAIKKLT
soluble on expression in E. coli: soluble

MTVEVDEYLNFCGTINEFISAHMLCLGMSVNNYEHRYIWDEILTSKSIKIRPFPFEKTARRSISGMIIKDDYETTLAYNSNMGEKRKNFTISHELIHAMYHLDSENKVFTDTKDTLSYSLADILPEFQANIGASSILLPEPVLINELKKGTPPYFISNRYGISEQAIFMRLLQQMQASFEASYVAAYDTANKIMNGNSKNLAIELGRNLERKILYSNPFYEAITL
soluble on expression in E. coli: not soluble

MCMDEIKKWKNVKAKKITETLNKRHFKASYVETLEEAKEKLISMIEEGSSVAIGGSTTLSQMGMVDVLRNGNYKFFDRYQNLPFDPDIVEIHRKSLTADYLITGTNAITENGELVNTDCTGNRVAPMIFGPKNVIIVAGINKIVENIDAALKRIREIAPMNSKRIKHETPCVETGFCVDCDCKKRICNFTTIIHNGIKFEGRIKIIIIADELGYLEHHHHHH
soluble on expression in E. coli: not soluble
